Biological target: the molecule itself
Test: SEC; Superdex200 Increase 10/300 GL, 20 mM Tris-HCl, 150 mM NaCl, 1 mM DTT, pH 8.0, 1 ml/min; aldolase (158 kDa) and conalbumin (75 kDa) as calibration proteins; oligomeric state of the refolded protein

B1: Refolded His-tagged neverland protein from Caenorhabditis elegans (His_CeNVD) (enzyme)
chain: RQLERLKLLRRVGDMPPVFPNGWYCVCESEKLANNQIMEITVLGQFLSLIRSESGAVYITDSYCPHIGANFNIGGRVVRDNCIQCPFHGWIFSAETGKCVEVPYDEGRIPEQAKVTTWPCIERNNNIYLWYHCDGAEPEWEIPEITEITDGFWHLGGRTEHEVMCHIQEIPENGADIAHLNYLHKSAPPVTKGSDIIKTDLSDPQPAVQHVWDGKWEVKSEEDRHCGVMHLNQFMTFWGYKVPLTSSKLVAEQHGPGIVHMLFDFGIWGKGVVFQTVTPEEALLQRVRFRIFSNIPWFFVKFFMTVEAMQFERDVFIWSNKKYIKSPLLVKNDGPIQKHRRWFSQFYTENSPKMLKDGSLSNQAKSIFDW
B1 was tested, and the “stoichiometry N” value was 3.
